Reference: US20090304686A1, “INTERFERING IN ACTIVATION OF AN IMMUNE CELL BY INFLUENCING INTERACTION OF LAIR AND COLLAGEN” (UNIVERSOTAIR MEDISCH CENTRUM UTRECHT, priority 2006, published 2009)

T1: human collagen type III (Homo sapiens, UniProt P02461)
T1 construct: purchased Sigma
T1 sequence (P02461 154-1221 limits assumed): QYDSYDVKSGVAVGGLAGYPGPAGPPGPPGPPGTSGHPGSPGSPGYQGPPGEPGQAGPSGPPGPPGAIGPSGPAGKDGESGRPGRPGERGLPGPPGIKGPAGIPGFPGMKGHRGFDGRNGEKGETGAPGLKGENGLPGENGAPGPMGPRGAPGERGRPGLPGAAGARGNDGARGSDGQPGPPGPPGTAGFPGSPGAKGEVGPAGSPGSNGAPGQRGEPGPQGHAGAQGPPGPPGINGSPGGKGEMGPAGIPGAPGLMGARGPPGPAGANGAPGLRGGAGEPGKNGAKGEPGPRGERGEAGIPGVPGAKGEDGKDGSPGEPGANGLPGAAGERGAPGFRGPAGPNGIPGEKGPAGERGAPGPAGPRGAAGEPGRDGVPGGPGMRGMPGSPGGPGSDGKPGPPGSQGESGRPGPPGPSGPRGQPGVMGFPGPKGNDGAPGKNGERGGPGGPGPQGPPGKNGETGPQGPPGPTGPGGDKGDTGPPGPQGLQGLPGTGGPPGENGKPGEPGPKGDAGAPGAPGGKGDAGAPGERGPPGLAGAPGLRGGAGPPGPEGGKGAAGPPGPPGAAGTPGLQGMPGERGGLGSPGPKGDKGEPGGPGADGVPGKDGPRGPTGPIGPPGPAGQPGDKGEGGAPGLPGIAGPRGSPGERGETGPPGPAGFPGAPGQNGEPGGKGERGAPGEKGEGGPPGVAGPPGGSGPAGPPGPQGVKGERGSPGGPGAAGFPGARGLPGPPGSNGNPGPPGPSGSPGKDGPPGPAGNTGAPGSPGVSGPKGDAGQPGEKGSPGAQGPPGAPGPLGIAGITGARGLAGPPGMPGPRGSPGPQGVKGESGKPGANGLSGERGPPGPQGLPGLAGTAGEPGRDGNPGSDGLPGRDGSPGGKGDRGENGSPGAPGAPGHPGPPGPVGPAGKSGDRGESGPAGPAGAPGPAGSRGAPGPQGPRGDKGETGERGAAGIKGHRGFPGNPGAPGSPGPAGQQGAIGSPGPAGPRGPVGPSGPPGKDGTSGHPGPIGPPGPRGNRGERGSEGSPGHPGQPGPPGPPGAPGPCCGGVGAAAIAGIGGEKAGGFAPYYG

T2: human collagen XVII (Homo sapiens, UniProt Q9UMD9)
T2 construct: Full-length human collagen XVII, HIS-tagged human collagen XIII, and human KIR3DL1 were kindly provided; expressed in transfected cells; host or cells: Ba/F3 (retroviral transduction)
T2 sequence (Q9UMD9 1-1497): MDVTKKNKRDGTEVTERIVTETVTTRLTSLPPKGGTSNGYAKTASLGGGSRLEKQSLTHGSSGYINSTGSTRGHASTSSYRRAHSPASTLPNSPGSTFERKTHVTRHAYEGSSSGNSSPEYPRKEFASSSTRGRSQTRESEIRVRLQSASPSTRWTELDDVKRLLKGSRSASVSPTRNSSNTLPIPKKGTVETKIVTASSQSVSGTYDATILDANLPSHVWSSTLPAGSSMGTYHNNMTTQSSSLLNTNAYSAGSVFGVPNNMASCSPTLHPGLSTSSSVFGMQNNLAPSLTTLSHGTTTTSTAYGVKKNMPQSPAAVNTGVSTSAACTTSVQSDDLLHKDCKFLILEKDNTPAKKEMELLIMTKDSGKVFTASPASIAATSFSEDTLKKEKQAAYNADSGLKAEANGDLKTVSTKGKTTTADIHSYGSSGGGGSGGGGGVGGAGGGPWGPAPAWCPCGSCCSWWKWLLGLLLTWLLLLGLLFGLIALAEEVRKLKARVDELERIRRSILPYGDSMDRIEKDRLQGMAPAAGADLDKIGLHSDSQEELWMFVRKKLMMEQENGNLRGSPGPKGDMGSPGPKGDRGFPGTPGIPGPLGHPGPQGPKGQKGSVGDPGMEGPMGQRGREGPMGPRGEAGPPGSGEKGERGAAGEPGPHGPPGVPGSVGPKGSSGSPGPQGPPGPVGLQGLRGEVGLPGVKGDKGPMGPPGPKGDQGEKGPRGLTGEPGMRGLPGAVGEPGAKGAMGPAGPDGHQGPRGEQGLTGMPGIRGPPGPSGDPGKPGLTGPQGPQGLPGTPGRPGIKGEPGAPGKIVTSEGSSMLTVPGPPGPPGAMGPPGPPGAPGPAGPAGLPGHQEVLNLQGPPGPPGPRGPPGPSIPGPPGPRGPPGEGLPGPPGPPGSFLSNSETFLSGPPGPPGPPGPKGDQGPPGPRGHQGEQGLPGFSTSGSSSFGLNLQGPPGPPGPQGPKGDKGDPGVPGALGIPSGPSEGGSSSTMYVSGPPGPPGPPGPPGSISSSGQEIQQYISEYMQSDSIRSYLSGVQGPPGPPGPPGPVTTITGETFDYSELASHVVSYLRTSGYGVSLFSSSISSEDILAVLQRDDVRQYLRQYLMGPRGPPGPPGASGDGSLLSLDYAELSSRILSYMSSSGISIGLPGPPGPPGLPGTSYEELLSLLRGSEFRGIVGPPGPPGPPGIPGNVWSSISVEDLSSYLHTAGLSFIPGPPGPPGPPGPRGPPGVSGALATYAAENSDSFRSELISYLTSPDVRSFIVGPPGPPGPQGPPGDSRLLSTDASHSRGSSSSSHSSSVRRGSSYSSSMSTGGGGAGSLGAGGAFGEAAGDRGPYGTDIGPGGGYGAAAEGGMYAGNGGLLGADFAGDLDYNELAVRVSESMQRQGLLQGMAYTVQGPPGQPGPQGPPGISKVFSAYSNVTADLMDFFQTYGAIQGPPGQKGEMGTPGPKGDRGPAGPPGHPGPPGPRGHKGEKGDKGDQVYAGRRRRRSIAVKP


Tests used:
[1] = test system: hLAIR-1/collagen interaction; test: Blocking of binding of hLAIR-1 expressing K562 cells to plate-bound collagens I and III; format: cell-based, human; conditions: pre-incubation of plate-bound collagens
Method: Purified commercial collagens I, III (Sigma), II (Chemicon International), or BSA (100 μl/well, 20 μg/ml in PBS, 2 mM acetic acid) were coated overnight at 4° C. in 96-well MAXIsorp (Nunc) flat-bottom plates. After washings, wells were blocked with 1% (w/v) BSA. Meanwhile, 5×10^6 cells/ml wild type K562 cells or K562 transfectants were fluorescently labeled for 30 min at 37° C. with 5 μM calceine AM (Molecular Probes) in PBS. Cells were washed twice with RPMI/1% FCS and 100 μl medium of 1.5×10^6 cells/ml cells was added to each well and plates were incubated at 37° C. for 2 h. Input fluorescence was determined using a fluorescence plate reader (Fluoroskan Ascent, Thermo Labsystems), the plates were firmly flicked and washed for six times in culture medium. The retained fluorescence was determined for each well as a percentage of input fluorescence.
96-well MAXIsorp flat-bottom plates (Nunc) were coated overnight at 4° C. with purified collagens I or III (Sigma, 2 and 5 μg/ml respectively) or BSA (5 μg/ml) in 100 μl PBS, supplemented with 2 mM acetic acid. 5×10^6 cells/ml wild-type K562 or K562 stably transfected with hLAIR-1 were assayed for their capacity to adhere to the collagens in the 96 well plates as described before(15).

human collagen type I = target: T3, human collagen type I (Homo sapiens, UniProt P02452+P08123); test: Surface plasmon resonance (BIAcore) binding of LAIR-IgG fusion proteins to immobilized collagen I
T3 construct: purchased Sigma
Method: (§1) Surface plasmon resonance (BIAcore) binding studies were performed using a BIAcore2000 system (BIAcore AB, Uppsala, Sweden). Approximately 2000-3000 response units (RU) of acid-soluble human collagen type I or III (Sigma) were immobilized on a CM5 biosensor chip using the amine coupling kit as instructed by the supplier. Immobilized triple-helical peptides composed of GCO(GPO)10GCOG-NH2 ((GPO)10, also known as collagen-related peptide, CRP^6) and GCP(GPP)10GCPG-NH2 ((GPP)10) were described previously^6. Approximately 250 RU (GPP)10 or (GPO)10 peptide trimers were immobilized using a cysteine coupling kit according manufacturers instructions. Analysis was performed in buffer (125 mM NaCl, 2.5 mM CaCl2, 0.005% (v/v) Tween 20, and 25 mM Hepes, (pH 7.4)) at 25° C. at a flow rate of 20 μl/min for collagen I and III interaction-studies and 5 μl/min for the immobilized peptides. […] Increasing concentrations of hLAIR-1-IgG were injected and allowed to reach an equilibrium plateau for 10 minutes. The delay between injections was 13 min, during which time the biosensor chip was flushed with buffer. In case of peptide-binding studies, biosensor chips were regenerated by injection of 0.1 M H3PO4 (2 min, 5 μl/min).
(§2) Dissociation constants (Kd) and the number of binding sites expressed as the response at infinite hLAIR-1-IgG concentration (Bmax) were calculated as follows. First, the response at equilibrium (Req) was calculated for each association curve. Subsequently, Kd and Bmax were determined from the binding isotherms (Req plotted against hLAIR-1-IgG concentration) by fitting equation Req=Bmax*[hLAIR-1-IgG]/(Kd+[hLAIR-1-IgG]). The fit was calculated using computer program GraphPad Prism (GraphPad Prism version 3.00 for Windows; GraphPad Software, San Diego, Calif., USA). […]
(§3) The surface plasmon resonance binding studies were performed as described before(15). LAIR-2-IgG dimer concentration was calculated based on a theoretical mass of 82.5 kDa.

human collagen type III = target: T1, human collagen type III; test: Surface plasmon resonance (BIAcore) binding of LAIR-IgG fusion proteins to immobilized collagen III
Method: as §1, §2, §3

human collagen XVII = target: T2, human collagen XVII; test: LAIR fusion protein staining of Ba/F3 cells transfected with human collagen XVII; format: binding
Method: Chimeric proteins of rat, mouse, and human LAIR-1 or human LAIR-2 fused to the Fc region of human IgG1 were prepared and cell lines were stained with these reagents in the absence or presence of blocking antibodies as described previously^11. When indicated, cells were incubated for 1 h with 100 units/ml chromatography purified C. histolyticum collagenase Type VII (Sigma) prior fusion-protein staining.

[2] = test system: endogenous hLAIR-1 ligand(s) on HT29 cells; test: Fusion protein blocking study on HT29 cells (flow cytometry); format: cell-based, human
Method: For fusion protein blocking studies, chimeric proteins of the extracellular domain of hLAIR-1 or LAIR-2 fused to the Fc region of human IgG1 were prepared as described previously(19). HT29 cells were pre-treated with 10% normal mouse serum to block aspecific interactions. Subsequently, HT29 cells were incubated with unlabeled hLAIR-1-IgG or LAIR-2-IgG for 10 minutes at room temperature and subsequently incubated with biotinylated hLAIR-1-IgG or LAIR-2-IgG for 30 minutes at room temperature. Binding of biotinylated proteins was detected with allophycocyanin (APC) conjungated streptavidin (BD Biosciences, San Diego, Calif.) and cells were analyzed by flow cytometry (FACSCalibur™, BD).

T3 sequence (P02452 162-1218 limits assumed): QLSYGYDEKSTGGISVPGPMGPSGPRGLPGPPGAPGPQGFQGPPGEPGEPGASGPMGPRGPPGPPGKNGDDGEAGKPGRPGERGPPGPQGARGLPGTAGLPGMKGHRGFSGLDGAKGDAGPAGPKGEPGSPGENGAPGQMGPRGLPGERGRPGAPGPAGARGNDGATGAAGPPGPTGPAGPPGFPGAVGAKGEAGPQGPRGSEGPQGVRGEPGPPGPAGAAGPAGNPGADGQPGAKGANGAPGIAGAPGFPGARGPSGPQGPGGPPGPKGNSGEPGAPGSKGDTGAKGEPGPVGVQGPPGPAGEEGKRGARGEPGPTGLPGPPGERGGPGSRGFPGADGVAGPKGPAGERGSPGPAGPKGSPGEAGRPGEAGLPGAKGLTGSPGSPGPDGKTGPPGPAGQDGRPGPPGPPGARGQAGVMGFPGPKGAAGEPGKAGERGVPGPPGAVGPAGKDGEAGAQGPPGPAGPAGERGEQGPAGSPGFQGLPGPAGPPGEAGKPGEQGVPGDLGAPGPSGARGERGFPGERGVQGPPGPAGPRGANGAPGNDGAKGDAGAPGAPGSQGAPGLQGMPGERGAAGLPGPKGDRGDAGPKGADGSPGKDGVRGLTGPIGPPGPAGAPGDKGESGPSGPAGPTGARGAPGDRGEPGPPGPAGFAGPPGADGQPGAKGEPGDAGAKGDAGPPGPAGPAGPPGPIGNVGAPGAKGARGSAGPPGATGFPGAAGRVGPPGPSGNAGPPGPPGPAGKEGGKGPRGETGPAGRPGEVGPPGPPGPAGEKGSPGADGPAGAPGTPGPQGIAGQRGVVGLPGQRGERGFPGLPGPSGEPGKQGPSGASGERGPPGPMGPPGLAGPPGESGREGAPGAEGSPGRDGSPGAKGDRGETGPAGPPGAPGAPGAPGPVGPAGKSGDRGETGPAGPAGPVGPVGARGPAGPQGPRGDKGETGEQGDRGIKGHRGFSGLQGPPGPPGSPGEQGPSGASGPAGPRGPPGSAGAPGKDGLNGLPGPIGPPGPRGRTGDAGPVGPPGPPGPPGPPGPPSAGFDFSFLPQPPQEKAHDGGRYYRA
T3 sequence (P08123 80-1119 limits assumed): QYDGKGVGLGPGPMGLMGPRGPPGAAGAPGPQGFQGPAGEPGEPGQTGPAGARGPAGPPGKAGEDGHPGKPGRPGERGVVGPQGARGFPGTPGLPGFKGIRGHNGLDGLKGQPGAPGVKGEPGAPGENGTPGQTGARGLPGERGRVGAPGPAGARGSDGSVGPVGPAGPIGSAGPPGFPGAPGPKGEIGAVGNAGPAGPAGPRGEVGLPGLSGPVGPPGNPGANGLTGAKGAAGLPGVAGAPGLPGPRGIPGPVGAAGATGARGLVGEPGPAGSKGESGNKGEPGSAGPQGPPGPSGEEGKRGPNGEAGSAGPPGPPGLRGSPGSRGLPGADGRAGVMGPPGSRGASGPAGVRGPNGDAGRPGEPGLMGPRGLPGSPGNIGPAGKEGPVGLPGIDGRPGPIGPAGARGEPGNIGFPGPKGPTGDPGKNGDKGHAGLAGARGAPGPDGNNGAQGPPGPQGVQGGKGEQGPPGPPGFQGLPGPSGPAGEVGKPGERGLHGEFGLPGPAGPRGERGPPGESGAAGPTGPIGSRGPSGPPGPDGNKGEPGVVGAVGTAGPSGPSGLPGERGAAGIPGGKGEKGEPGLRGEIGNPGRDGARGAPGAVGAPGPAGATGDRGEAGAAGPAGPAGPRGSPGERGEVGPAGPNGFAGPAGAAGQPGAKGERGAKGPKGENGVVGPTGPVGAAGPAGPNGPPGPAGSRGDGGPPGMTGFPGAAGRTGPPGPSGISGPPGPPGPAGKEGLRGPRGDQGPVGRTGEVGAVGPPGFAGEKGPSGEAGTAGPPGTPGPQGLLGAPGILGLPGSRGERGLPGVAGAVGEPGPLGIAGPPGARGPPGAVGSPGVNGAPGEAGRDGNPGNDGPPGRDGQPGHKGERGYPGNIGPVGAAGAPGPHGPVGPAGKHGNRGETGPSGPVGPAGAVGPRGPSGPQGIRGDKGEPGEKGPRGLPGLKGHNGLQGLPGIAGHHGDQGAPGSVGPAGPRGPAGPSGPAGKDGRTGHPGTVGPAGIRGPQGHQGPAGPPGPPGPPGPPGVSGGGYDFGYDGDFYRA

Molecule	blocking of binding of hLAIR-1 expressing K562 cells to plate-bound collagens I and III [1]	binding to collagen I (in words) (human collagen type I)	higher affinity as compared to most IgSF-members interacting with their ligands (human collagen type I; collagen I and III)	number of LAIR molecules / binding sites per single triple-helical collagen I molecule (Bmax) (human collagen type I; from Bmax of binding isotherm)	binding to collagen III (in words) (human collagen type III)	number of LAIR molecules / binding sites per single triple-helical collagen III molecule (Bmax) (human collagen type III; from Bmax of binding isotherm)	dissociation from collagen (in words) (human collagen type III; hLAIR-1-IgG: collagen I and III, LAIR-2-IgG: collagen III, collagen I comparable)	binding to Ba/F3 cells stably transfected with human collagen XVII (human collagen XVII)	biotinylated LAIR-2-IgG staining of HT29 cells after pre-incubation [2]
wild-type LAIR-2: wild-type LAIR-2 protein in concentrated supernatant from LAIR-2-transfected 293T cells (protein) QEGALPRPSISAEPGTVISPGSHVTFMCRGPVGVQTFRLEREDRAKYKDSYNVFRLGPSESEARFHIDSVSEGNAGLYRCLYYKPPGWSEHSDFLELLVKGTVPGTEASGFDAP	blocked	–	–	–	–	–	–	–	–
hLAIR-1-IgG: Chimeric protein of human LAIR-1 fused to the Fc region of human IgG1 (protein, left off: a dimerising Fc or GST, Chimeric protein of human LAIR-1 fused to the Fc region of human IgG1) QEEDLPRPSISAEPGTVIPLGSHVTFVCRGPVGVQTFRLERDSRSTYNDTEDVSQASPSESEARFRIDSVREGNAGLYRCIYYKPPKWSEQSDYLELLVKESSGGPDSPDTEPGSSAGPTQRPSDNSHNEHAPASQGLKAEHLY	–	high affinity	20-1000 fold	approximately 10.4	high affinity	~9.7	relatively slow dissociation	specific binding	reduced
